Test results published in patent US20230103407A1.

Target: mannose receptor (UniProt Q61830)
Experiment: cell-based or functional assay

Chain of mannose receptor (Q61830 20-1456 limits assumed): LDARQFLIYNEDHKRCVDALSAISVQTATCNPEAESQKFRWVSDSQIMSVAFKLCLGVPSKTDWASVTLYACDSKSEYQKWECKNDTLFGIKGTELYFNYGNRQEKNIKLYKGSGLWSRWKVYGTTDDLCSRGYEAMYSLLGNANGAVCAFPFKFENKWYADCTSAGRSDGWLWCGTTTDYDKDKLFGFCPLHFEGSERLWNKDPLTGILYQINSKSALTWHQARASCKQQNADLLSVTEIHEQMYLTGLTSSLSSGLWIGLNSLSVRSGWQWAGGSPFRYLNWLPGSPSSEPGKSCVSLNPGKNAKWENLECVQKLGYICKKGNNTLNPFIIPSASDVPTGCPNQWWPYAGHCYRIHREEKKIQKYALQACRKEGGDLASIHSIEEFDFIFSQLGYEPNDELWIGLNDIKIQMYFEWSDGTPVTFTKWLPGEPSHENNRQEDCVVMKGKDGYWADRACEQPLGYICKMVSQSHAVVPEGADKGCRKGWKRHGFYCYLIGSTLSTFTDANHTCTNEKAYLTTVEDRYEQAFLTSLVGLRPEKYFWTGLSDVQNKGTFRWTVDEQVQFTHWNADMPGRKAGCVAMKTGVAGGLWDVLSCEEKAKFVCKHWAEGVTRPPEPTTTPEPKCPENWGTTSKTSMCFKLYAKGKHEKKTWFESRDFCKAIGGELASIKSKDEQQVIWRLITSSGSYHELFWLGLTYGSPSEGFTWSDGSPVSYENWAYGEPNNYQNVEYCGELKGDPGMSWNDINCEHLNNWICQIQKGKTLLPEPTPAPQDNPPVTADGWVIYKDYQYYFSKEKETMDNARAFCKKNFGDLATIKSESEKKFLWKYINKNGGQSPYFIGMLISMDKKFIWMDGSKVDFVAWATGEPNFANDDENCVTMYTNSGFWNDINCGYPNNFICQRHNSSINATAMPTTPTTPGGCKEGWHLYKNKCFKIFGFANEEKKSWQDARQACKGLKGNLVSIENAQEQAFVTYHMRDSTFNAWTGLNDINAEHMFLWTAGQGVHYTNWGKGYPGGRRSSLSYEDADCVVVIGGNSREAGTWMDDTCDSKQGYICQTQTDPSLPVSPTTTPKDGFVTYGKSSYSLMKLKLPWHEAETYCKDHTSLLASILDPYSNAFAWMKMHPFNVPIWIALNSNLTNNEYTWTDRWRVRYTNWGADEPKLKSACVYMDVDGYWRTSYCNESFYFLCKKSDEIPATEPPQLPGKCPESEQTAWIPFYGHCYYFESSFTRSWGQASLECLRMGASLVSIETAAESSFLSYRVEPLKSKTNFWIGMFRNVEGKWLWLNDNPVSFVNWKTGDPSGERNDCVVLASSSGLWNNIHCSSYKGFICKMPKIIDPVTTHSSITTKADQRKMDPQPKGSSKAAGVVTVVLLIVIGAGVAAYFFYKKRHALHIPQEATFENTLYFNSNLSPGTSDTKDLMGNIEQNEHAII

## SapC-DOPS-GCase nanovesicles
  GCase uptake (net GCase activity) blocked by mannan in J774E macrophages or Gba1-/- neurons: 20%
